T1: mouse GLP-1 receptor (mGLP-1r) (Mus musculus, UniProt O35659)
T1 construct: expressed in transfected cells; host or cells: HEK293s or CHO cells
T1 sequence (O35659 22-463): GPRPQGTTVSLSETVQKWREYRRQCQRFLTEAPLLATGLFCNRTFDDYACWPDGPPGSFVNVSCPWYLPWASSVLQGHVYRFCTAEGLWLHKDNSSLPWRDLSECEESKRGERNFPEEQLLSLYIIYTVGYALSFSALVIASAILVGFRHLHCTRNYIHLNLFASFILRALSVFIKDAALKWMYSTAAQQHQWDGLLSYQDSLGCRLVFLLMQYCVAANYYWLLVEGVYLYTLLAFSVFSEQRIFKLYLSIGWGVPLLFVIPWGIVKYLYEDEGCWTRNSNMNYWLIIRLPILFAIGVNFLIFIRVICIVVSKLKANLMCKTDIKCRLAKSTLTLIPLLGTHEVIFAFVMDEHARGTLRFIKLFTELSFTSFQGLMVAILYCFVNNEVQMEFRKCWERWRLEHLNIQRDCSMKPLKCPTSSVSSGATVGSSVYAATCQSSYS

T2: mouse GIP receptor (mGIPr) (Mus musculus, UniProt Q0P543)
T2 construct: expressed in transfected cells; host or cells: HEK293s or CHO cells
T2 sequence (Q0P543 19-460): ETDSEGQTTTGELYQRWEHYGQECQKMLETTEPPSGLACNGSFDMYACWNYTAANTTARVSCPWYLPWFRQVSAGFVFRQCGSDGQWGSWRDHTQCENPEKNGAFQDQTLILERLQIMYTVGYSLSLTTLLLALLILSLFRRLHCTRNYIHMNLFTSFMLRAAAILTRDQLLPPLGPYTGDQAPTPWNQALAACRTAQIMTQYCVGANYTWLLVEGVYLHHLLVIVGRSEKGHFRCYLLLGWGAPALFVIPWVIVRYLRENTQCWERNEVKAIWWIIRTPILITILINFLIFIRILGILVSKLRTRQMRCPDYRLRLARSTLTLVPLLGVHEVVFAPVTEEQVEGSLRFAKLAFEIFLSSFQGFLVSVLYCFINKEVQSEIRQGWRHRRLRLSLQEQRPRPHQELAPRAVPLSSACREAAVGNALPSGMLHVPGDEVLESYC

T3: human GIP receptor (hGIPr) (Homo sapiens, UniProt P48546)
T3 construct: expressed in transfected cells
T3 sequence (P48546 22-466): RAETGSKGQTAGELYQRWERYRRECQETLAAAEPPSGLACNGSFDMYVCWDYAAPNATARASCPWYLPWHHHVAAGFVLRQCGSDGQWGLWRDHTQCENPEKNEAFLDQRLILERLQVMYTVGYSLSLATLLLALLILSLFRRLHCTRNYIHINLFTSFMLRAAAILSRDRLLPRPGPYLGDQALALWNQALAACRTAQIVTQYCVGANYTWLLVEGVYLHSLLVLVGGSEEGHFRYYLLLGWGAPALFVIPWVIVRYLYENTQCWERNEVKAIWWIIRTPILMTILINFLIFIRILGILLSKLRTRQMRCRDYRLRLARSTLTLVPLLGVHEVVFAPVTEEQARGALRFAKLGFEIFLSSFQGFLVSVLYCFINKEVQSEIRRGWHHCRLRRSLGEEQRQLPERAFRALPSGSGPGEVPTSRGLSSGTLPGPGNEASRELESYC

T4: rat GIP receptor (rGIPr) (Rattus norvegicus, UniProt P43219)
T4 construct: expressed in transfected cells; host or cells: HEK293s or CHO cells
T4 sequence (P43219 19-455): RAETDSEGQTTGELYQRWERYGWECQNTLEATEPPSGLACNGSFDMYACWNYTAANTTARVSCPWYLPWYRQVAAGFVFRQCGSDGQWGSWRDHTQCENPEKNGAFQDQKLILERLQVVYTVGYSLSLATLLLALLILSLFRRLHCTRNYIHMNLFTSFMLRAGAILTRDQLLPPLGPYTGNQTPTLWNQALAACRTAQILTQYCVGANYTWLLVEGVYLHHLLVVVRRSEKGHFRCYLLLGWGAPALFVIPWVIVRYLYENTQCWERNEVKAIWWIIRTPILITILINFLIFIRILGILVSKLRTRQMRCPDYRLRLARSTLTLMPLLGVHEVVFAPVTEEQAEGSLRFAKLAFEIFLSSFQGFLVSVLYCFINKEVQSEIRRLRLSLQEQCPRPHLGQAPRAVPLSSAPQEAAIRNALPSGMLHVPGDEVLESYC

T5: rat GLP-1 receptor (rGLP-1r) (Rattus norvegicus, UniProt P32301)
T5 construct: expressed in transfected cells; host or cells: HEK293s or CHO cells
T5 sequence (P32301 22-463): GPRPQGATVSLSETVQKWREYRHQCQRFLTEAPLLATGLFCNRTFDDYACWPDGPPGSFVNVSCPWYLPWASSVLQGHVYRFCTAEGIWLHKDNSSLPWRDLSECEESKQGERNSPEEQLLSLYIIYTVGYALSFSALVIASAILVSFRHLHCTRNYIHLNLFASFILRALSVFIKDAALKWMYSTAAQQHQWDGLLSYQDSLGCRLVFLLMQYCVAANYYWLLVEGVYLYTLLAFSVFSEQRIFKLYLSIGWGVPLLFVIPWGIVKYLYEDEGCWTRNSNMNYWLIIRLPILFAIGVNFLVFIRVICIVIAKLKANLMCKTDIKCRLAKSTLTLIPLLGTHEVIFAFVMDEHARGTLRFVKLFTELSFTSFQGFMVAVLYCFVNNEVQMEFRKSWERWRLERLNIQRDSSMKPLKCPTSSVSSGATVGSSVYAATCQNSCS

B1: IP170 (protein)
chain: YSEGTFTSDVSSYMERQAIDEFIAWLLKGGAAAGGSGSTASSGSGSATGGGGAATHTCPPCPAPEF
modifications: /note=“Description of Artificial Sequence Synthetic Peptide-linker-hinge polypeptide”
B2: IP223 (protein)
chain: B1 chain with R16E, Q17E
modifications: /note=“Description of Artificial Sequence Synthetic Peptide-linker-hinge polypeptide”
B3: IP226 (protein)
chain: B1 chain with S12K, Y13L, M14L
modifications: /note=“Description of Artificial Sequence Synthetic Peptide-linker-hinge polypeptide”
B4: IP209 (protein)
chain: B1 chain with V10Y
modifications: /note=“Description of Artificial Sequence Synthetic Peptide-linker-hinge polypeptide”
B5: IP015 (protein)
chain: HGEGTFTSDVSSYLEGQAAKEFIAWLVKGAAAGGSGSTASSGSGSATGGGGAATHTCPPCPAPEF
modifications: /note=“Description of Artificial Sequence Synthetic Peptide-linker-hinge polypeptide”
B6: IP146 (protein)
chain: HGEGTFTSDVSSYLEGQAAKEFIAWLVKGAAAGGSGSTASSGSGSATGGGGAACPPCPAPEF
modifications: /note=“Description of Artificial Sequence Synthetic Peptide-linker-hinge polypeptide”
B7: IP188 (protein)
chain: YSEGTFISDYSIAMDKIHQQDFVNWLLAQKAPPGGGGGSGGGGSGGGGSGGGGSATHTCPPCPAPEF
modifications: /note=“Description of Artificial Sequence Synthetic Peptide-linker-hinge polypeptide”
B8: IP207 (protein)
chain: YAEGTFISDYSIAMDKIHQQDFVNWLLAQKGKKNDWKHNITQAAAGGSGSTASSGSGSATGGGGAATHTCPPCPAPELL
modifications: /note=“Description of Artificial Sequence Synthetic Peptide-linker-hinge polypeptide”
B9: IP203 (protein)
chain: B1 chain with Y1H, S2G, M14L, R16G, I19A, D20K, L27V
modifications: /note=“Description of Artificial Sequence Synthetic Peptide-linker-hinge polypeptide”

Where a chain is given by its changes, count along the chain named. Values joined by “and” are separate entries in the source; they are usually repeats but may differ in a detail not shown here. Equal values may be shown once.

T7 sequence (P43220 24-463): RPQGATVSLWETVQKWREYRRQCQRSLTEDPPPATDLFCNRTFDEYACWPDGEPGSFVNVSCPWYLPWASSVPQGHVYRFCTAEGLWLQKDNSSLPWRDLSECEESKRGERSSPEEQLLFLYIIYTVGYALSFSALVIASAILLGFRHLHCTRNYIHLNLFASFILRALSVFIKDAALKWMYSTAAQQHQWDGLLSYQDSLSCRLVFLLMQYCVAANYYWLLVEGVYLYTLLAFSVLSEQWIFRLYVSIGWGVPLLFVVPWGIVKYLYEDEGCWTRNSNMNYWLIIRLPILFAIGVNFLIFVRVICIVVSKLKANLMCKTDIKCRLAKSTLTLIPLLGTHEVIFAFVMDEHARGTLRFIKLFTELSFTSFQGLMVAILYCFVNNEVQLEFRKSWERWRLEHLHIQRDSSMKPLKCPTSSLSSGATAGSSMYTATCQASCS

The target of one experiment is T1, mouse GLP-1 receptor (mGLP-1r). Put plainly: BSA-cAMP assay, cells expressing mouse GLP-1 receptor. The experiment is classed as cell-based. The following applies: BSA-cAMP assay; read-out: cAMP activity mGLP1r (EC50). The procedure: (§1) One basic cAMP assays was performed, differing in the medium used for the assay, the “BSA-cAMP assay”:
(§2) BSA-based assay medium: 0.1% bovine serum albumin (BSA) in
(§3) In certain aspects, the assay can also be carried out in medium supplemented with serum albumin that corresponds to the receptor being tested, e.g., human serum albumin for testing cAMP activity at hGIPr or hGLP-1r, rat serum albumin for testing cAMP activity at rGIPr or rGLP-1r, and so on. […] All sample dilutions were made in duplicate.
(§4) A frozen cryo-vial of cells expressing the receptor of interest was thawed rapidly in a water-bath, transferred to pre-warmed assay media and spun at 240×g for 5 minutes. Cells were re-suspended in assay buffer at an optimized concentration (e.g., hGLP-1r and hGIPr cells at 0.5×10^5 cells/ml).
(§5) To this, 5 μL cell suspension was added and the plates incubated at room temperature for 30 minutes.
(§6) cAMP levels were measured using a commercially available cAMP dynamic 2 HTRF kit (Cisbio, Cat #62AM4PEJ), following the two step protocol as per manufacturer's recommendations. In brief; anti-cAMP cryptate (donor fluorophore) and cAMP-d2 (acceptor fluorophore) were made up separately by diluting each 1/20 in conjugate & lysis buffer provided in the kit. 5 μL anti-cAMP cryptate was added to all wells of the assay plate, and 5 μL cAMP-d2 added to all wells except non-specific binding (NSB) wells, to which conjugate and lysis buffer was added. […] Data was transformed to % Delta F as described in manufacturer's guidelines and then transformed to percent activation of maximal native agonist response and analysed by 4-parameter logistic fit to determine EC50 values.
(§7) We used unconstrained 4 parameter logistic fit of data, curve mid-point to determine EC50. This was tested on two occasions, not two batches.
(§8) In order to be able to carry out in vivo studies in rodents, IP088 was tested for potency against the mouse receptors mGIPr and mGLP-1r as well as the rat receptors rGIPr and rGLP-1r, using cells expressing the respective receptors in the cAMP assay described above.
On the technique in general: Cyclic AMP is a second messenger, typically raised through Gs and lowered through Gi signalling.
Take B1: the EC50 – broadly, the concentration that produces a half-maximal response – was 0.85 nM.

For the molecule B2, the EC50 stood at 80 nM.

B3: the EC50 turned out to be 1 nM.

In the case of B4, the EC50 was 0.84 nM and 1.6 nM.

Consider B5, for which the EC50 is 0.13 nM.

The target of another experiment is T2, mouse GIP receptor (mGIPr). Briefly: BSA-cAMP assay, cells expressing mouse GIP receptor. It is filed as cell-based. Conditions: BSA-cAMP assay; read-out: cAMP activity mGIPr (EC50). The procedure: as §1, §2, §3, §4, §5, §6, §7, §8
B1: the EC50 came to 34 nM.

Regarding B3, the concentration for a half-maximal effect (EC50) was found to be 7.5 nM.

The next experiment addresses T3, human GIP receptor (hGIPr). Briefly: BSA-cAMP assay, cells expressing human GIP receptor. It is filed as cell-based. Conditions: BSA-cAMP assay; batch 1 unless a batch is given; read-out: cAMP activity hGIPr (EC50). The procedure: For human GIPr, two different lines were used, shown as “hGIPr” and “hGIPr (C3)” in Table 11.
as §1, §2, §3, §4, §5, §6, §7
B6: the EC50 came out at 83 nM.

For the molecule B7, the EC50 was determined as 0.0038 nM.

B8: the EC50 was 0.0085 nM and 0.0078 nM.

As to B1, the 50% effective concentration (EC50) worked out at 0.079 nM.

For B9, the EC50 worked out at 110 nM.

As for B2, the EC50 was 2.5 nM.

Consider B3, for which the EC50 came out at 0.025 nM.

For the molecule B5, the EC50 came to 27 nM.

The target in the next experiment is T6, human glucagon receptor (GCGr) (Homo sapiens, UniProt P47871).
T6 construct: expressed in transfected cells; host or cells: HEK293s or CHO cells
T6 sequence (P47871 26-477): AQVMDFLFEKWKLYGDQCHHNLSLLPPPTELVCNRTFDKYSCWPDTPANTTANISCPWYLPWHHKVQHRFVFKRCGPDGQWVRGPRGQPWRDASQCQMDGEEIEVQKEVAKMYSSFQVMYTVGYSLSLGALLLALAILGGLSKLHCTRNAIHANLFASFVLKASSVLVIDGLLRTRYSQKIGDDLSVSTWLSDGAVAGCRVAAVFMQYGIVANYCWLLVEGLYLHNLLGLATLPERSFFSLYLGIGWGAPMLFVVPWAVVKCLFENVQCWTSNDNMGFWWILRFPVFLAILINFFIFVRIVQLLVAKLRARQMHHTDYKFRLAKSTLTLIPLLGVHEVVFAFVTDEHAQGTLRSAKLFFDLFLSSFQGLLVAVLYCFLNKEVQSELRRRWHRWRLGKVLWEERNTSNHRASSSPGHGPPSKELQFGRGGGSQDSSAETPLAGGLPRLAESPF
Briefly: BSA-cAMP assay, cells expressing human glucagon receptor. The experiment is classed as cell-based. Conditions: batch 1 unless a batch is given, read-out: cAMP activity hGCGr (EC50). The procedure:
as §1, §2, §3, §4, §5, §6, §7
Take B6: the EC50 was found to be 650 nM.

As to B7, the EC50 came to 350 nM.

Take B8: the EC50 was 900 nM.

Take B9: the EC50 was > 650 nM.

As for B4, the EC50 was > 6270 nM.

Another experiment has as its target T7, human GLP-1 receptor (hGLP-1r) (Homo sapiens, UniProt P43220).
T7 construct: expressed in transfected cells
Briefly: BSA-cAMP assay, cells expressing human GLP-1 receptor. The experiment is classed as cell-based. The following applies: BSA-cAMP assay; batch 1 unless a batch is given; read-out: cAMP activity hGLP1r (EC50). The procedure: as §1, §2, §3, §4, §5, §6, §7
For the molecule B6, the EC50 was determined as 0.049 nM.

On to B7, for which the EC50 was found to be 500 nM.

As to B8, the EC50 was 4100 nM.

As to B1, the EC50 is 0.12 nM.

Take B9: the EC50 was found to be 0.042 nM.

B2: the EC50 was 16 nM.

In the case of B3, the EC50 worked out at 0.2 nM.

As to B4, the EC50 is 0.23 nM and 0.2 nM.

As for B5, the EC50 is 0.041 nM and 0.023 nM and 0.038 nM.

The next experiment concerns the target T4, rat GIP receptor (rGIPr). Briefly: BSA-cAMP assay, cells expressing rat GIP receptor. The experiment is classed as cell-based. The following applies: BSA-cAMP assay; read-out: cAMP activity rGIPr (EC50). The procedure: as §1, §2, §3, §4, §5, §6, §7, §8
Regarding B1, the EC50 worked out at 2.3 nM.

As to B2, the EC50 is 72 nM.

With B3, the EC50 was determined as 0.27 nM.

The next experiment has as its target T5, rat GLP-1 receptor (rGLP-1r). Put plainly: BSA-cAMP assay, cells expressing rat GLP-1 receptor. The experiment is classed as cell-based. The following applies: BSA-cAMP assay; read-out: cAMP activity rGLP1r (EC50). The procedure: as §1, §2, §3, §4, §5, §6, §7, §8
As for B1, the EC50 was found to be 0.06 nM.

In the case of B2, the EC50 worked out at 18 nM.

For B3, the EC50 stood at 0.061 nM.

As to B4, the EC50 was 0.075 nM and 0.091 nM.

With B5, the EC50 was 0.014 nM.

Values taken from patent publication US20160185837A1 (Medimmune Limited, priority 2013, published 2016).
